Reference: US20180086841A1 (Merck Sharp & Dohme, published 2018)
Positions count from the first letter of the chain named.

Key:
Test in all cases: flow cytometry on CHO-K1 transfectants;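 further: Anti-hCD27 antibodies tested on transiently transfected CHO-K1 cells bearing hCD27 alanine mutants, 30 min at 4 °C primary incubation, FITC readout excluding debris, dead cells and doublets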
K38A = target: T1, K38A
T1 construct: also called hCD27 K38A
T1 receptor chain: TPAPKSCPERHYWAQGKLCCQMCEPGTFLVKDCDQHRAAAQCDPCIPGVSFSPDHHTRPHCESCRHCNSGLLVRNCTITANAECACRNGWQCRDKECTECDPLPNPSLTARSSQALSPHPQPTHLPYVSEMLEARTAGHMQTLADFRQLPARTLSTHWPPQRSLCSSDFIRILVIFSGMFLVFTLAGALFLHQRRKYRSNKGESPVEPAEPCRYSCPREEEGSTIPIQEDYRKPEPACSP
Procedure: (§1) The hCD27 variants that were tested are listed. Amino acids correspond to the UniProt P26842-1 sequence. Amino acids 1-20 constitute the signal peptide. Binding is expressed as the geometric mean of the FITC signal, relative to antibody binding to hCD27, which was set at 100%.
(§2) The ability of several anti-hCD27 antibodies to bind to a series of hCD27 alanine mutants was determined using CHO-K1 cells, transiently transfected pCI-neo empty vector, pCI-neo.hCD27 and several pCI-neo.CD27Ala mutant constructs.
(§3) Detached cells were transferred to 96 wells round-bottomed well plates at approximately 1.2×10⁵ cells/well. After spinning down the cells, discarding the supernatants and re-suspending the cells in the residual volume, the primary antibodies were added and incubated for 30 minutes at 4° C. Cells were washed three times with DPBS/BSA 1%, followed by centrifugation, discarding of the supernatants and re-suspension in the residual volume. […] After washing once, antibody binding was detected using the HTS plate reader (FACS Canto II) and FlowJo software for data analysis. Debris, dead cells and doublets were excluded from the analysis. Binding was expressed as the geometric mean of the FITC signal, relative to antibody binding to hCD27, which was set at 100%.

R87A = target: T2, R87A
T2 construct: also called hCD27 R87A
T2 receptor chain: T1 receptor chain with A38K, R87A
Procedure: as §1, §2, §3

F28A = target: T3, F28A
T3 construct: also called hCD27 F28A
T3 receptor chain: T1 receptor chain with F28A, A38K
Procedure: as §1, §2, §3

Q91A = target: T4, Q91A
T4 construct: also called hCD27 Q91A
T4 receptor chain: T1 receptor chain with A38K, Q91A
Procedure: as §1, §2, §3

W13A = target: T5, W13A
T5 construct: also called hCD27 W13A
T5 receptor chain: T1 receptor chain with W13A, A38K
Procedure: as §1, §2, §3

G16A = target: T6, G16A
T6 construct: also called hCD27 G16A
T6 receptor chain: T1 receptor chain with G16A, A38K
Procedure: as §1, §2, §3

D32A = target: T7, D32A
T7 construct: also called hCD27 D32A
T7 receptor chain: T1 receptor chain with D32A, A38K
Procedure: as §1, §2, §3

Q15A = target: T8, Q15A
T8 construct: also called hCD27 Q15A
T8 receptor chain: T1 receptor chain with Q15A, A38K
Procedure: as §1, §2, §3

V30A = target: T9, V30A
T9 construct: also called hCD27 V30A
T9 receptor chain: T1 receptor chain with V30A, A38K
Procedure: as §1, §2, §3

H36A = target: T10, H36A
T10 construct: also called hCD27 H36A
T10 receptor chain: T1 receptor chain with H36A, A38K
Procedure: as §1, §2, §3

B1: hCD27.15-6B (antibody, human IgG4 S228P, kappa, V domains shown)
VH: QVQLVQSGAEVKKPGASVKVSCKASGFIIKATYMHWVRQAPGQRLEWMGRIDPANGETKYDPKFQVRVTITADTSASTAYMELSSLRSEDTAVYYCARYAWYFDVWGQGTLVTVSS
VL: DIQMTQSPSSLSASVGDRVTITCRASENIYSFLAWYQQKPGKAPKLLIYHAKTLAEGVTSRFSGSGSGTDFTLTISSLQPEDSATYYCQHYYGSPLTFGQGTRLEIKR
notes: also called hCD27.15 (humanized 6B); humanized hCD27.15 (human IgG4, Clone 6B)
For B1, the “binding, WT hCD27 = 100 (GM FITC)” value (K38A) was 97.6%, the “binding, WT hCD27 = 100 (GM FITC)” value (R87A) was 114% and the “binding, WT hCD27 = 100 (GM FITC)” value (F28A) was 59.4%. For the same binder, the “binding, WT hCD27 = 100 (GM FITC)” value (Q91A) was 136%, the “binding, WT hCD27 = 100 (GM FITC)” value (W13A) was 71.4% and the “binding, WT hCD27 = 100 (GM FITC)” value (G16A) was 141%. For the same binder, the “binding, WT hCD27 = 100 (GM FITC)” value (D32A) was 50.6%, the “binding, WT hCD27 = 100 (GM FITC)” value (Q15A) was 98.6% and the “binding, WT hCD27 = 100 (GM FITC)” value (V30A) was 82.6%. The “binding, WT hCD27 = 100 (GM FITC)” value (H36A) was 122%.
